Reference: paper PMC11675717, “Evolutionary Adaptations in Biliverdin Reductase B: Insights into Coenzyme Dynamics and Catalytic Efficiency” (International Journal of Molecular Sciences, 2024)
Numbering of substitutions follows the chain as printed. In names and notes the source's numbering stands.

Substrate: Cc1cc2nc3c(=O)[nH]c(=O)nc-3n(C[C@H](O)[C@H](O)[C@H](O)COP(=O)(O)OP(=O)(O)OC[C@H]3O[C@@H](n4cnc5c(N)ncnc54)[C@H](O)[C@@H]3O)c2cc1C
Experiment: purified protein
Format: biochemical, Homo sapiens
Settings: co-substrate NADPH 400 µM; enzyme 20 µM

B1: human BLVRB (Homo sapiens) (protein)
chain: AVKKIAIFGATGQTGLTTLAQAVQAGYEVTVLVRDSSRLPSEGPRPAHVVVGDVLQAADVDKTVAGQDAVIVLLGTRNDLSPTTVMSEGARNIVAAMKAHGVDKVVACTSAFLLWDPTKVPPRLQAVTDDHIRMHKVLRESGLKYVAVMPPHIGDQPLTGAYTVTLDGRGPSRVISKHDLGHFMLRCLTTDEYDGHSTYPSHQYQ
notes: pET21
Km: 242 ± 36 µM
kcat: 0.16 ± 0.03 s⁻¹

B2: human BLVRB (Homo sapiens; T164S) (protein)
chain: B1 chain with T163S
notes: pET21
Km: 171 ± 33 µM
kcat: 0.1 ± 0.03 s⁻¹
